Assay in all cases: EC50 of free RNA motif oligo competing protein binding to immobilised probe
One series has as its target T1, GPALPP1 (UniProt Q8IXQ4).
T1 sequence: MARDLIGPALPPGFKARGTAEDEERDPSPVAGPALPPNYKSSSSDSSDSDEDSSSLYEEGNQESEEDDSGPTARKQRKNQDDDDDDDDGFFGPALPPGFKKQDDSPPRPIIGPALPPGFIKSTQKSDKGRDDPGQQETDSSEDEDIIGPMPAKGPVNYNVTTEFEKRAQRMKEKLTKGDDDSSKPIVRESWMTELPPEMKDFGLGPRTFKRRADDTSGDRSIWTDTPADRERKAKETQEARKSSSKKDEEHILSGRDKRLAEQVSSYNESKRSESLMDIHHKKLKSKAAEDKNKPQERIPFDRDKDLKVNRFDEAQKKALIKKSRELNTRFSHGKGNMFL
Summed up:
(§1)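 Free RNA oligos (0 nM to 30 μM) competed for 1 h at 4°C in HEK293-FT lysate (2.5 mg protein/well) before a 30 min, 4°C pulldown with the same oligos on NHS-Sepharose beads. Bound proteins were quantified by label-free LC-MS/MS and normalised to the control. Kd was found by multiplying EC50, from a four-parameter log-logistic fit, by a protein-dependent depletion factor.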

For a further series, the target named is TUBB2A (UniProt Q13885). Summed up: as §1
The target in the next series is T2, ZRANB2 (UniProt O95218).
T2 sequence: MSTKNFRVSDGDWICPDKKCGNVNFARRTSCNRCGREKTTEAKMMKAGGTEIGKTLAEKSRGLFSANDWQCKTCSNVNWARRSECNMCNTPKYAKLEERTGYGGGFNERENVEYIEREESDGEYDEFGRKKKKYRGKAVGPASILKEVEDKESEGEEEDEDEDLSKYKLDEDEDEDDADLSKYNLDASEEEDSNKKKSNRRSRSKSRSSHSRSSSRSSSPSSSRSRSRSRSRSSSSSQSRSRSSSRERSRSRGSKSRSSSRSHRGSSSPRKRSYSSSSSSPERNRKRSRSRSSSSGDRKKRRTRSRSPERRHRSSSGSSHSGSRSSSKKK
In short, it runs like this: as §1

A further series concerns the target RPS13 (UniProt P62277). In short, it runs like this:
as §1

The next series concerns the target T3, YTHDC2 (UniProt Q9H6S0).
T3 sequence: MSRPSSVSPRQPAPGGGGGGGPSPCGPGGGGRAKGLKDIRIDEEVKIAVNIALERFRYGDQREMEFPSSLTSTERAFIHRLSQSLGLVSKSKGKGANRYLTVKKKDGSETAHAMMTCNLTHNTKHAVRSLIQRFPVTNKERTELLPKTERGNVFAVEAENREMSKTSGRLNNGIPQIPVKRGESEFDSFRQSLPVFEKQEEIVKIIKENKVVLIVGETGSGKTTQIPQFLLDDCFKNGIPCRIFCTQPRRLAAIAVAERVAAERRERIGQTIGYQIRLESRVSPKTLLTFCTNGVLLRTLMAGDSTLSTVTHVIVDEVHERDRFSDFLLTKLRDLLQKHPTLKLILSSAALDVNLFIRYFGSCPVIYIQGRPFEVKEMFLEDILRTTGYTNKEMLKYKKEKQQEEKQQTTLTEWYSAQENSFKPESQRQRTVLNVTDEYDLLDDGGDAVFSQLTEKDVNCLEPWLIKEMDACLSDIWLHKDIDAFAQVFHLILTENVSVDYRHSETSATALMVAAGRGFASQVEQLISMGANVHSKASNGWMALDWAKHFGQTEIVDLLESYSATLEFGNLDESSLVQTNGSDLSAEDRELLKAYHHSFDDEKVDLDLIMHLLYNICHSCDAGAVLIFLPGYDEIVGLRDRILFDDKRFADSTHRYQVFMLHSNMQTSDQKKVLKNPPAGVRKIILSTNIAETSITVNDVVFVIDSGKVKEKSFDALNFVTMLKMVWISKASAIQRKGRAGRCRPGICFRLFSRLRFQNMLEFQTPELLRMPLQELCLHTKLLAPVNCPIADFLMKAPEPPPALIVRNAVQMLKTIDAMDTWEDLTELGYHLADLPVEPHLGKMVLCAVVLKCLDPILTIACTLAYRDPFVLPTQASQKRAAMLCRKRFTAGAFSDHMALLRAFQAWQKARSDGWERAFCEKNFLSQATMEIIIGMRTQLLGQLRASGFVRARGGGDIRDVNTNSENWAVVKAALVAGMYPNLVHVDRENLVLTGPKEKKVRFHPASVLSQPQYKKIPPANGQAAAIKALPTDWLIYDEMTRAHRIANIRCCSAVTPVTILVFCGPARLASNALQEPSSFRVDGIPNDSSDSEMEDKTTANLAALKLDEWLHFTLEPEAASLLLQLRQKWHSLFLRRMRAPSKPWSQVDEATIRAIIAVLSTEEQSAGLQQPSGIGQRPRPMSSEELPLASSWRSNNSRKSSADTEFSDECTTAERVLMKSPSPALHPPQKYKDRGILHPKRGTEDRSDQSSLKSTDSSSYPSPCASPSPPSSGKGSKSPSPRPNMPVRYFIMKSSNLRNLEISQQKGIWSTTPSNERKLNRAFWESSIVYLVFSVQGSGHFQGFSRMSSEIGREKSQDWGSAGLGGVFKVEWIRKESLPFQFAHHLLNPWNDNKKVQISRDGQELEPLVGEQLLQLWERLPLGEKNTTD
In short, it runs like this: as §1

The target of another series is DAP3 (UniProt P51398). Summed up:
as §1

A further series addresses TARDBP (UniProt Q13148). Summed up: as §1

Results on three sequences are retold here after the supplement of paper PMC6379048.

TUBB2A, sequence (Q13885 whole entry): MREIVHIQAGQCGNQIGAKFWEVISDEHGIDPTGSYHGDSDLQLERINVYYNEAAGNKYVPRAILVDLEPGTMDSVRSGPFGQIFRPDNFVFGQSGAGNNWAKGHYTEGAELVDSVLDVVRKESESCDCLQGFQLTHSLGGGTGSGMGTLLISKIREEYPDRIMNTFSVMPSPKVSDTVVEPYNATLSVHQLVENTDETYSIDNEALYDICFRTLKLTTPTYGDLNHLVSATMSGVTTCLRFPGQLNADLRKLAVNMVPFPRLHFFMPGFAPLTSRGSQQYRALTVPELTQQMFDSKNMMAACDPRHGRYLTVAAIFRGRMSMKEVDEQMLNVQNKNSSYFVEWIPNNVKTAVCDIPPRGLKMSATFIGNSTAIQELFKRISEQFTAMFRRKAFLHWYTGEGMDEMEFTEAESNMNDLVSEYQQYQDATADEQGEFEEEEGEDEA
TARDBP, sequence (Q13148 whole entry): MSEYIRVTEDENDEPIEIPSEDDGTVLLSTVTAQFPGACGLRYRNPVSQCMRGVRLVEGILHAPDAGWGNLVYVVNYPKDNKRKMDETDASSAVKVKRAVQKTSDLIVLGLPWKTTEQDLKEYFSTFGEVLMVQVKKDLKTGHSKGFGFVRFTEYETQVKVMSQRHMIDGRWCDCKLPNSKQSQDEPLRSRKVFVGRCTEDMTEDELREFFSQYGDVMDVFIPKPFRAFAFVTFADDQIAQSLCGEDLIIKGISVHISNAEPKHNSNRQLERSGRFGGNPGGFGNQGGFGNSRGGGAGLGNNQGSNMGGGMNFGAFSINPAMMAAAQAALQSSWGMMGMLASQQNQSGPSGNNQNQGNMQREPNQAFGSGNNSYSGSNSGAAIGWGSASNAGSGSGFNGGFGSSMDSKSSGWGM

As to AAUAAA, the concentration for a half-maximal effect (EC50) was 0.0338 µM in the series with GPALPP1, 1.09 µM with TUBB2A and 1.9 µM with ZRANB2.
As to CUGUCCU, the 50% effective concentration (EC50) with RPS13 turned out to be 0.123 µM; with YTHDC2, 2.24 µM.
With UAUUUAU, the EC50 was determined as 0.0514 µM with DAP3 and 2.79 µM in the series with TARDBP.

The EC50 is the midpoint of the concentration-response curve. A lower EC50 goes with higher potency in that assay.
